Source: the RNAGym collection of RNA variant scans (doi:10.1093/molbev/msab373)

B1: Azoarcus group I ribozyme (parent)
chain: GUGCCUUGCGCCGGGAAACCACGCAAGGGAUGGUGUCAAAUUCGGCGAAACCUAAGCGCCCGCCCGGGCGUAUGGCAACGCCGAGCCAAGCUUCGGCGCCUGCGCCGAUGAAGGUGUAGAGACUAGACGGCACCCACCUAAGGCAAACGCUAUGGUGAAGGCAUAGUCCAGGGAGUGGCGAAAGUCACACAAACCGG

Variants of: B1
Test: reverse-splicing fitness (ratio to wild type); higher = more active; in vitro selection; Mg2+ level not given
Outline: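 An in vitro group I ribozyme library with randomized positions was T7-transcribed and gel-purified. In triplicate, 10 pmol RNA in EPPS pH 7.5 was reacted with 50 pmoles of a 30-nt RNA substrate for 1 h at 37 °C across several added MgCl2 levels (1–48 mM), then stopped with EDTA. Products were reverse transcribed from a substrate-complementary primer, PCR-amplified and sequenced (HiSeq 4000). Fitness is a variant's read proportion after selection over that before, normalised to wild type.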
C82A A111C A120G A145U C150U C169A U176G showed a reverse-splicing fitness of 0.00604.
Variant C82A A111C A120G A145U C150U C169A U176C has a reverse-splicing fitness of 0.00986.
In the case of C82A A111C A120G A145U C150U C169A U176A, the reverse-splicing fitness is reported as 0.0123.
For C82A A111C A120U A145G C150A C169A U176C, the reverse-splicing fitness was 0.00537.
With C82A A111C A120U A145G C150A C169A U176A the reverse-splicing fitness was 0.00894.
Variant C82A A111C A120U A145G C150A C169A U176G has a reverse-splicing fitness of 0.00349.
C82A A111C A120U A145G C150U showed a reverse-splicing fitness of 0.0191.
With C82A A111C A120U A145G C150A the reverse-splicing fitness was 0.00897.
Work on C82A A111C A120U A145G C150G yielded a reverse-splicing fitness of 0.00762.
For C82A A111C A120U A145C C150A C169U U176A, the reverse-splicing fitness was 0.0036.
In the case of C82A A111C A120U A145C C150A C169U U176C, the reverse-splicing fitness is reported as 0.00283.
Work on C82A A111C A120U A145C C150A C169U U176G yielded a reverse-splicing fitness of 0.00263.
With C82A A111C A120U A145G the reverse-splicing fitness was 0.023.
With C82A A111C A120U A145U the reverse-splicing fitness was 0.0205.
With C82A A111C A120U A145C the reverse-splicing fitness was 0.0196.
Work on C82A A111C A120G A145G C150G C169A yielded a reverse-splicing fitness of 0.00875.
For C82A A111C A120G A145G C150G C169G, the reverse-splicing fitness was 0.00706.
C82A A111C A120G A145G C150G C169U showed a reverse-splicing fitness of 0.00877.
C82A A111C A120U A145U C150A U176A showed a reverse-splicing fitness of 0.00477.
Work on C82A A111C A120U A145U C150A U176C yielded a reverse-splicing fitness of 0.0062.
Work on C82A A111C A120U A145U C150A U176G yielded a reverse-splicing fitness of 0.00301.
C82A A111C A120U A145G C169G U176A showed a reverse-splicing fitness of 0.00381.
Work on C82A A111C A120U A145G C169G U176G yielded a reverse-splicing fitness of 0.00244.
In the case of C82A A111C A120U A145G C169G U176C, the reverse-splicing fitness is reported as 0.00437.
With C82A A111C A120G C150U C169A U176G the reverse-splicing fitness was 0.00621.
C82A A111C A120G C150U C169A U176A showed a reverse-splicing fitness of 0.013.
With C82A A111C A120G C150U C169A U176C the reverse-splicing fitness was 0.0139.
Variant C82A A111C A120U A145U C150A C169G U176C has a reverse-splicing fitness of 0.00377.
For C82A A111C A120U A145U C150A C169G U176G, the reverse-splicing fitness was 0.00247.
For C82A A111C A120U A145U C150A C169G U176A, the reverse-splicing fitness was 0.003.
C82A A111C A120G A145G C150U C169A showed a reverse-splicing fitness of 0.0111.
C82A A111C A120G A145G C150U C169G gave a reverse-splicing fitness of 0.0106.
C82A A111C A120G A145G C150U C169U gave a reverse-splicing fitness of 0.00986.
In the case of C82A A111C A120G C169A U176G, the reverse-splicing fitness is reported as 0.00465.
Variant C82A A111C A120G C169A U176C has a reverse-splicing fitness of 0.0177.
For C82A A111C A120G C169A U176A, the reverse-splicing fitness was 0.0155.
C82A A111C A120U A145G C150G U176A gave a reverse-splicing fitness of 0.00763.
With C82A A111C A120U A145G C150G U176G the reverse-splicing fitness was 0.00449.
With C82A A111C A120U A145G C150G U176C the reverse-splicing fitness was 0.00851.
C82A A111C A120U A145U C150G C169G U176C showed a reverse-splicing fitness of 0.00299.
In the case of C82A A111C A120U A145U C150G C169G U176A, the reverse-splicing fitness is reported as 0.00314.
C82A A111C A120U A145C C169U gave a reverse-splicing fitness of 0.00399.
C82A A111C A120U A145C C169A gave a reverse-splicing fitness of 0.00286.
For C82A A111C A120U A145C C169G, the reverse-splicing fitness was 0.00295.
For C82A A111C A120G A145U C150G C169U U176C, the reverse-splicing fitness was 0.0111.
For C82A A111C A120G A145U C150G C169U U176A, the reverse-splicing fitness was 0.00693.
C82A A111C A120G A145U C150G C169U U176G showed a reverse-splicing fitness of 0.00542.
In the case of C82A A111C A120G A145U C150G U176A, the reverse-splicing fitness is reported as 0.0064.
With C82A A111C A120G A145U C150G U176G the reverse-splicing fitness was 0.0034.
With C82A A111C A120G A145U C150G U176C the reverse-splicing fitness was 0.0147.
In the case of C82A A111C A120U A145C C150A C169G U176G, the reverse-splicing fitness is reported as 0.00211.
For C82A A111C A120U A145C C150A C169G U176A, the reverse-splicing fitness was 0.0036.
With C82A A111C A120U A145C C150A C169G U176C the reverse-splicing fitness was 0.00345.
Work on C82A A111C A120G C150U C169U U176C yielded a reverse-splicing fitness of 0.0155.
For C82A A111C A120G C150U C169U U176A, the reverse-splicing fitness was 0.0157.
C82A A111C A120G C150U C169U U176G gave a reverse-splicing fitness of 0.00631.
In the case of C82A A111C A120G A145G C150G C169G U176A, the reverse-splicing fitness is reported as 0.00968.
C82A A111C A120G A145G C150G C169G U176C showed a reverse-splicing fitness of 0.0118.
C82A A111C A120G A145G C150G C169G U176G gave a reverse-splicing fitness of 0.00603.
For C82A A111C A120U A145C C150U U176A, the reverse-splicing fitness was 0.00424.
C82A A111C A120U A145C C150U U176C showed a reverse-splicing fitness of 0.00525.
Variant C82A A111C A120U A145C C150U U176G has a reverse-splicing fitness of 0.0028.
Variant C82A A111C A120U A145G C150A U176A has a reverse-splicing fitness of 0.00754.
Work on C82A A111C A120U A145G C150A U176G yielded a reverse-splicing fitness of 0.00381.
C82A A111C A120U A145G C150A U176C gave a reverse-splicing fitness of 0.00799.
C82A A111C A120G C169U U176G gave a reverse-splicing fitness of 0.00559.
With C82A A111C A120G C169U U176A the reverse-splicing fitness was 0.0144.
Variant C82A A111C A120G C169U U176C has a reverse-splicing fitness of 0.0145.
C82A A111C A120U A145C C150G C169A gave a reverse-splicing fitness of 0.00359.
With C82A A111C A120U A145C C150G C169U the reverse-splicing fitness was 0.005.
Work on C82A A111C A120U A145C C150G C169G yielded a reverse-splicing fitness of 0.00355.
Work on C82A A111C A120G A145G C150U U176A yielded a reverse-splicing fitness of 0.00883.
Variant C82A A111C A120G A145G C150U U176C has a reverse-splicing fitness of 0.0186.
For C82A A111C A120G A145G C150U U176G, the reverse-splicing fitness was 0.00706.
C82A A111C A120G A145G C150G C169U U176G gave a reverse-splicing fitness of 0.00784.
Variant C82A A111C A120G A145G C150G C169U U176C has a reverse-splicing fitness of 0.0123.
Work on C82A A111C A120G A145G C150G C169U U176A yielded a reverse-splicing fitness of 0.0114.
Work on C82A A111C A120G C150G yielded a reverse-splicing fitness of 0.00723.
In the case of C82A A111C A120G C150U, the reverse-splicing fitness is reported as 0.0107.
Variant C82A A111C A120G C150A has a reverse-splicing fitness of 0.00933.
C82A A111C A120G A145U C150A C169G U176A gave a reverse-splicing fitness of 0.0138.
With C82A A111C A120G A145U C150A C169G U176G the reverse-splicing fitness was 0.00576.
With C82A A111C A120G A145U C150A C169G U176C the reverse-splicing fitness was 0.0156.
